Laboratory results reported in US20170275639A1.

Target: WNV (strain New York 1999), infectious virus (West Nile virus, strain New York 1999) (UniProt Q9Q6P4)
Test: cell-based or functional assay

EC50, focus reduction neutralization assay (Vero cells): 3 ng/mL
Substance: Tetra pHu-E16 (tetravalent molecule assembled from pHu-E16scFv-CH^1-3 and pHu-E16scFv-CL) (antibody)
